Molecular target: A. thaliana DCL1 DSRM1 (A. thaliana)
Test: BLI

How did the fold higher affinity than HYL1 DSRM1 for the same target turn out when “A. thaliana HYL1 DSRM2 (domain or fragment)” was run?
Its fold higher affinity than HYL1 DSRM1 for the same target is 3.4 fold.

From PMC8557471
